Reference: patent publication US12295997B2, “Prostate neoantigens and their uses” (Janssen Biotech, Inc., priority 2020, dated 2025)

B1: P19 (peptide, listed as Homo sapiens)
chain: WTPIPVLTRWPLPHPPPWRRATSCRMARSSPSATSGSSVRRRCSSLPSWVWNLAASTRPRSTPS

Assays:
Assay in all cases: In vitro binding of neoantigens to class I MHC (UV peptide exchange, HLA class I ELISA)
Settings in all cases: 100% = same binding as positive control peptide
HLA-A*02:01 = HLA-A*02:01 (Homo sapiens, UniProt P04439, D140Y/D185E/D98H/E176V/E277Q/G131W/G231S/I119V/I121R/I166T/I218V/L300P/L318F/N151K/N90K/P208A/P217A/Q86G/Q94H/R138H/R169H/T345S)
Description: (§1) The 9 mer peptides identified by bioinformatics analysis were analyzed for their binding propensities to 6 common HLA class I alleles (HLA-A*01:01, A*02:01, A*03:01, A*24:02, B*07:02, B*08:01). The principle of the method is briefly described below and consists of two parts, one involving exchange of peptide with a positive control induced by Ultraviolet (UV) radiation, and the second is an enzyme immunoassay to detect stable HLA-peptide and empty HLA complexes.
(§2) HLA-bound peptides are critical for the stability of the HLA complex. A conditional HLA class I complex was stabilized by an UV-labile peptide utilizing a different peptide (Pos) for each HLA (Pos: HLA-A*01:01: […](SEQ ID NO: 409), HLA-A*02:01: […] (SEQ ID NO: 410), HLA-A*03:01: […] (SEQ ID NO: 411), HLA-A*24:02: […] (SEQ ID NO: 412), HLA-B*07:02: […] (SEQ ID NO: 413), HLA-B*08:01: […] (SEQ ID NO: 414), which could be cleaved by UV irradiation when bound to the HLA molecule. Upon cleavage, the resulting peptide fragments dissociated from the HLA class I complex since their length was insufficient to bind stably to HLA. Under the conditions in which peptide cleavage was performed (neutral pH, on melting ice), the peptide-free HLA complex remained stable.
(§3) The exchange efficiency between the peptide of interest and Pos was analyzed using an HLA class I ELISA. The combined technologies allowed the identification of ligands for an HLA molecule of interest which are potentially immunogenic.
(§4) Exchange control peptide Pos was a high affinity binder to the relevant HLA class I allele while exchange control peptide Neg was a non-binder. The UV control represented UV-irradiation of conditional HLA class I complex in the absence of a rescue peptide.
(§5) The HLA class I ELISA is an enzyme immunoassay based on the detection of beta2-microglobulin (B2M) of (peptide-stabilized) HLA class I complexes. To this end streptavidin was bound onto polystyrene microtiter wells. After washing and blocking, HLA complex present in exchange reaction mixtures or ELISA controls was captured by the streptavidin on the microtiter plate via its biotinylated heavy chain. Non-bound material was removed by washing. Subsequently, horseradish peroxidase (HRP)-conjugated antibody to human B2M was added. The HRP-conjugated antibody binds only to an intact HLA complex present in the microtiter well because unsuccessful peptide exchange results in disintegration of the original UV-sensitive HLA complex upon UV illumination. In the latter case B2M was removed during the washing step. After removal of non-bound HRP conjugate by washing, a substrate solution was added to the wells. A coloured product formed in proportion to the amount of intact HLA complex present in the samples. After the reaction was terminated by the addition of a stop solution, absorbance was measured in a microtiter plate reader. The absorbance was normalized to the absorbance of an exchange control peptide (represents 100%). Suboptimal HLA binding of peptides with a moderate to low affinity for HLA class I molecules can also be detected by this ELISA technique (Rodenko, B et al. (2006) Nature Protocols 1: 1120-32).
(§6) Peptides that had 10% or greater exchange efficiency in one of the 6 HLA alleles were considered for further immunogenicity testing and analysis.
(§7) Binding of select neoepitopes to HLA-A*01:01, HLA-A*02:01, HLA-A*03:01, HLAA*24:02, HLAAB*07:02 and HLA-B*08:01 was evaluated using the assay described in Example 1. […] As a criterion for further evaluation, peptides with an exchange rate of at least 10% with the corresponding Pos peptide for at least one of the 6 HLA alleles that we considered for further evaluation. The exchange rates with the allele specific Pos peptides, of the 24 neoantigens so identified are summarized below in Table 17. Higher percentages correspond to stronger binding to the HLA allele. […]

HLA-B*08:01 = HLA-B*08:01 (Homo sapiens, UniProt P01889, A93T/A95T/D138N/E176V/E187T/K202T/Q94N/R180D/S35A/V36M/Y33D/Y91F)
Description: as §1, §2, §3, §4, §5, §6, §7

HLA-B*07:02 = HLA-B*07:02 (Homo sapiens, UniProt P01889)
Description: as §1, §2, §3, §4, §5, §6, §7

HLA-A*24:02 = HLA-A*24:02 (Homo sapiens, UniProt P04439, D101N/D140Y/D185E/E176V/E190D/F33S/G103R/G107R/I119L/I121M/I306V/K335N/L105A/L180Q/L300P/N151K/N90K/Q86E/Q94H/R106L/R138H/R89G/T104I/T345S/V100E/W191G/Y123F)
Description: as §1, §2, §3, §4, §5, §6, §7

HLA-A*01:01 = HLA-A*01:01 (Homo sapiens, UniProt P04439, A114D/A174V/A182V/D101N/D185E/E176A/E190D/L180R/Q94H/R68K/S129P/T187R/V100A/V91M/W191G)
Description: as §1, §2, §3, §4, §5, §6, §7

Molecule | Exchange rate with allele specific Pos peptide, HLA-A*02:01 (HLA-A*02:01) | Exchange rate with allele specific Pos peptide, HLA-B*08:01 (HLA-B*08:01) | Exchange rate with allele specific Pos peptide, HLA-B*07:02 (HLA-B*07:02) | Exchange rate with allele specific Pos peptide, HLA-A*24:02 (HLA-A*24:02) | Exchange rate with allele specific Pos peptide, HLA-A*01:01 (HLA-A*01:01)
P98: neoantigen 9 mer fragment used for PBMC stimulation (FIG. 5D) (IVWWCPMSR; listed as Homo sapiens) [Neoantigen P98] | 7.9% | 2.4% | 6.7% | −0.1% | 2.5%
YEAGMTLGEKFRVGNCKHLKMTRP (listed as Homo sapiens) [Neoantigen P82] | 6.3% | 1.4% | 12.9% | −0.1% | 1.5%
P61 (MFENGCYLGRQKRFKCE; listed as Homo sapiens) [Peptide P61] | 5.8% | 3.6% | – | 90.3% | 1.7%
SLYHREKQLIAMDSAI (listed as Homo sapiens) [Neoantigen P22] | 46.9% | 3.9% | – | 0% | 4.4%
P58 (MMAEIISVHVPKILSGK; listed as Homo sapiens) [Peptide P58] | 11.8% | 5.3% | – | 0.2% | 2.5%
YEAGMTLGGKILFFLFLLLPLSPFSLIF (listed as Homo sapiens) [Neoantigen P87] | 64% | 3.1% | 5% | 0.2% | 1.1%
P56 (PKSEVRAKCKFSILNAK; listed as Homo sapiens) [Peptide P56] | 8.4% | 38% | 82.5% | 0.5% | 2.6%
P73 (DSSGNLLERNSFEVRV; listed as Homo sapiens) [Peptide P73] | 89.2% | 2.6% | 8.7% | 0.5% | 2.1%
P60 (CYLRRQKRLKCEKQPGA; listed as Homo sapiens) [Peptide P60] | 7.9% | 10.2% | 6.1% | 0.9% | 3.1%
P97 (GYLRMQGLMAQRLLLR; listed as Homo sapiens) [Peptide P97] | 4.6% | 2.7% | 7% | 0.1% | 2.5%
P46 (DDRNTFDIVWWCPMSRLRLALTVPPSTTTTCVTVPAWAA; listed as Homo sapiens) [Peptide P46] | 14.4% | 14.5% | 64.8% | −0.4% | 2.4%
B1 | 8.2% | 14.5% | 91.3% | 0.1% | 5.2%
